Ends that are not written are not given here.
T1: EPO receptor (on UT-7/EPO cells) (human, UniProt P19235 25-508)
T1 sequence (looked up): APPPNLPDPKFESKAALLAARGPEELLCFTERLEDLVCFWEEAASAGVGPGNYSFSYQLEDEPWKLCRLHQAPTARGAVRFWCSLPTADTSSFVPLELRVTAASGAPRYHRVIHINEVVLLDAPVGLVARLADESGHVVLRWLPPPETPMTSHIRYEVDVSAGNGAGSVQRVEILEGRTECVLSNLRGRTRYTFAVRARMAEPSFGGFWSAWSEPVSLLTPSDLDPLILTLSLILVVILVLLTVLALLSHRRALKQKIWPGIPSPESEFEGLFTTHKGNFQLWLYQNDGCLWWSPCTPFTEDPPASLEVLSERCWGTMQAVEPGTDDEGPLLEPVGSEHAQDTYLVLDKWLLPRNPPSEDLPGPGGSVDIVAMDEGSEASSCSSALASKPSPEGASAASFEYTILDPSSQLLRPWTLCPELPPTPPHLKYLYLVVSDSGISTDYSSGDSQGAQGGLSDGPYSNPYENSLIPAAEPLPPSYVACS


Key:
[1] = target: EPO receptor (on UT-7/EPO cells) (human) (UniProt P19235); assay: cell-based or functional assay
[2] = target: T1, EPO receptor (on UT-7/EPO cells); assay: cell-based or functional assay

Row | EC50 in the UT7 in vitro bioactivity assay, relative to its historical average [1] [fold] | EC50 in the UT-7/EPO in vitro bioactivity assay, relative to its historical average [2] [fold] | Molecule
1 | 3 |  | recombinant human erythropoietin (rHuEPO) (from UniProt P01588 28-192) (ligand)
2 |  | 2 | GGTYSCHFGPLTWVCKPQGG (ends and bridges not checked; cysteine pairing not given here) [EMP-1 (EPO mimetic peptide-1)]

Reference: US20050191301A1 (Janssen / Centocor, published 2005)
